The series can be described thus: Formulation stability of lyophilisate form (HPLC content and purity, pH) on storage. The format is physicochemical. Here is the method: Stabilities measurements were performed by means of High Performance Liquid Chromatographic (HPLC) method. The HPLC system a HPLC Waters Alliance 2695 completed by detection system 2487 Dual λ Absorbance Detector, the column used was a C18, 250×4.6 mm. All details concerning instrumental conditions are gathered in table 6. Elution conditions are gathered in table 7. Two pharmaceutical forms were studied in parallel for stability assays over six months at +5° C. and +25° C./60% RH (relative humidity) and +40° C./75% RH. Measurements were carried out in parallel with (in either wfi, or 5% dextrose as solvent) and a lyophilisate (drug substance on its own) or as second variant of formulations with an additional bulking agents such as mannitol, glycine and trehalose) in WFI. […] C (% initial) represents the content expressed in percentage at the moment T with regard to the content at the moment Tzero. […] In table 7 are gathered the elution program, the ratio of each eluant (mobile phase) used for measurement of formulation stabilities. […] Thereafter 20 ml of acetic acid 0.1 N were added under shaking by means of a vortex and if required additionally dissolved in ultrasonic bath in order to obtain a total dissolution. Weight of brut BI[…] 760 was calculated by means of the following relation: […]

SMILES strings stand for the structures.

For `CCCN1CC(CSCC(=O)N[C@H](CCCCNC(=O)CSC[C@@H]2C[C@@H]3c4cccc5[nH]cc(c45)C[C@H]3N(CCC)C2)C(=O)N[C@H]2CSSC[C@@H](C(=O)N[C@H](C(N)=O)[C@@H](C)O)NC(=O)[C@H](CC)NC(=O)[C@H](CCCCN)NC(=O)[C@@H](Cc3c[nH]c4ccccc34)NC(=O)[C@H](Cc3ccc(O)cc3)NC2=O)C[C@@H]2c3cccc4[nH]cc(c34)C[C@H]21` (stereo partly drawn) [BIM23A760, Dop2-DLys(Dop2)-c(Cys-Tyr-DTrp-Lys-Abu-Cys)-Thr-NH2], the “C (% initial)” value runs as follows: (+5° C., T3 Months) 103.6% initial; (+5° C., T6 Months) 73.0% initial; (+25° C./60% RH, T0) 100% initial; (+25° C./60% RH, T3 Months) 98.8% initial; (+40° C./75% RH, T1 Month) 52.0% initial; (+40° C./75% RH, T3 Months) 29.0% initial. The “P (% a/a)” value is recorded as 96.10% a/a (+5° C., T3 Months); 96.80% a/a (+5° C., T6 Months); 95.90% a/a (+25° C./60% RH, T0); 93.70% a/a (+25° C./60% RH, T3 Months); 95.9% a/a (+40° C./75% RH, T1 Month); 95.5% a/a (+40° C./75% RH, T3 Months). The compound also displayed a pH (+5° C., T3 Months) of 6.64; a pH (+5° C., T6 Months) of 5.81; a pH (+25° C./60% RH, T0) of 6.8; a pH (+25° C./60% RH, T6 Months) of 6.63; a pH (+40° C./75% RH, T3 Months) of 5.60; a pH (+40° C./75% RH, T6 Months) of 5.62.

The values are drawn from patent US20110034399A1, “Liquid and Freeze Dried Formulations” (IPSEN PHARMA S.A.S., priority 2008, published 2011).
